This is an account of results in patent US20190300625A1 (Regeneron, published 2019).

Assay [1] deals with T1, hTMPRSS2 knob_mmh (W106-R255).mmh (human).
T1 construct: also called hTMPRSS2.mmh; HMM-hTMPRSS2
Put plainly: SPR (Biacore 4000), mAb captured by anti-mouse Fc, HMM-hTMPRSS2 as analyte, 25 C.

Assay [2] deals with T1, hTMPRSS2 knob_mmh (W106-R255).mmh. Put plainly: SPR (Biacore 4000), mAb captured by anti-mouse Fc, HMM-hTMPRSS2 as analyte, 37 C. A general note: Surface plasmon resonance follows binding to a sensor surface in real time, without labels.
For assay [3], the target named is T2, mfTMPRSS2 knob_mmh (W106-R255).mmh (monkey).
T2 construct: also called mfTMPRSS2.mmh; HMM-mfTMPRSS2
T2 sequence (chain, as listed by the source limits assumed): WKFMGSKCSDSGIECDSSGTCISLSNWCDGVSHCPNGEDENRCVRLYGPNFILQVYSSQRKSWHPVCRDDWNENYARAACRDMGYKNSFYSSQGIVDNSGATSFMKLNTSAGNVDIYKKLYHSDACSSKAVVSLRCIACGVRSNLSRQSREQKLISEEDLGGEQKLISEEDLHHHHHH
Kind of assay: SPR (Biacore 4000), mAb captured by anti-mouse Fc, HMM-mfTMPRSS2 as analyte, 25 C.

The target of assay [4] is T2, mfTMPRSS2 knob_mmh (W106-R255).mmh. Kind of assay: SPR (Biacore 4000), mAb captured by anti-mouse Fc, HMM-mfTMPRSS2 as analyte, 37 C.

T1 sequence (chain, as listed by the source limits assumed): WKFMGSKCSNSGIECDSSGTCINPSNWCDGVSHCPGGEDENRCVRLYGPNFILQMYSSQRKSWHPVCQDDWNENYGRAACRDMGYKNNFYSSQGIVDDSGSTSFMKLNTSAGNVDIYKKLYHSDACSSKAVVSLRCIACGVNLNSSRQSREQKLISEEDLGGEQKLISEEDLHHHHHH

B1: H2aM7017N (antibody, V domains shown)
VH: QVQLVESGGGVVQPGRSLRLSCAASGFTFSSYGMHWVRQSPGKGLEWVAVIWNDGSYVYYADSVKGRFTISRDISKNTLFLQMNSLRAEDTAVYYCAREGEWVLYYFDYWGQGTLVTVSS
VL: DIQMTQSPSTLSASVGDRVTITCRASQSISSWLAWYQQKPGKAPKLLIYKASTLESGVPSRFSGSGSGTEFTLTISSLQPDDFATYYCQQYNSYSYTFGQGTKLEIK
notes: also called anti-TMPRSS2 monoclonal antibody (Biacore)
The Kd is the free concentration of one partner at which half of the binding sites on the other are occupied at equilibrium, for simple one-to-one binding. Broadly, the koff is the rate constant with which the complex falls apart. Low readings indicate slow dissociation, high ones fast dissociation. As a reminder, the kon is the rate constant with which the complex forms. A higher kon goes with fast association. The term t½ denotes the time needed for the level to fall by half in the phase considered. Turning to B1, in assay [1], the dissociation constant Kd is 2.81 nM, the koff was 0.000745 s⁻¹, the association rate constant (kon) worked out at 265000 M⁻¹ s⁻¹ and the t½ was 15.5 min. In assay [2], this molecule had a Kd of 9.31 nM, a koff of 0.00323 s⁻¹, a kon of 347000 M⁻¹ s⁻¹ and a t½ of 3.6 min. Further, in assay [3], the equilibrium dissociation constant (Kd) was 56 nM, the off-rate constant (koff) came to 0.0157 s⁻¹, the association rate constant (kon) was 280000 M⁻¹ s⁻¹ and the t½ turned out to be 0.7 min. In assay [4], this molecule showed a dissociation constant (Kd) of 140 nM, a koff of 0.0512 s⁻¹, a kon of 366000 M⁻¹ s⁻¹ and a t½ of 0.2 min.
